Measurements from article doi:10.1101/2020.11.19.389494, “The structural mechanism underlying the antithetic effect of homologous RND1 and RhoD GTPases in plexin regulation” (bioRxiv, 2020).

Biological target: T1, human RhoD (residues 8-194) with the Q75L mutation, bound to GMP-PNP (human, UniProt O00212 8-194, Q75L)
T1 construct: Loaded with the GTP analogue GMP-PNP and Mg2+ before crystallisation; His6 tag removed with human rhinovirus 3C protease; also called GMP-PNP-loaded RhoD; source: E. coli BL21 (DE3), purified (HisTrap, Resource Q, Superdex 75); not shown: His6, N-terminal, cleaved
T1 sequence (looked up): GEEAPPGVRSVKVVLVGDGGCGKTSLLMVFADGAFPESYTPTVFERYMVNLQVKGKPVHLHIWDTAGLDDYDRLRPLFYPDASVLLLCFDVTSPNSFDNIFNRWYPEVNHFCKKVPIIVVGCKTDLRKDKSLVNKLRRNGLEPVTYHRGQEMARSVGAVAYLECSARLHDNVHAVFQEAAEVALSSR
Test: crystal structure; Plexin B2 (1274-1842) and GMP-PNP-loaded RhoD mixed at 1:1 molar ratio, 6 mg/mL total; crystals grown over a month at 20 °C in 0.2 M MgCl2, 22 % PEG3350, 100 mM MIB pH 6.8; plexin B2 degraded to the RBD in the drops; 3.1 Å, molecular replacement
Settings: both partners purified

B1: mouse plexin B2 Rho GTPase binding domain (RBD) (domain or fragment, UniProt B2RXS4 1463-1565, looked up)
chain: EYAPLTVSVIVQDEGIDAIPVKVLNCDTISQVKEKIIDQVYRTQPCSCWPKPDSVVLEWRPGSTAQILSDLDLTSQREGRWKRINTLMHYNVRDGATLILSKV
notes: Plexin B2, mouse; Expressed as the intracellular region without the juxtamembrane region (residues 1274-1842); it degraded in the crystallization drops and the crystal held only the RBD, of which residues 1463-1509 and 1510-1565 are described in the model; In the crystal two RBD chains form a domain-swapped dimer (swap between residues 1509 and 1510), which the authors regard as a crystallization …
B1: binds.
